The experiment has as its target HLA-A*02 (human). In words: UV peptide-exchange ELISA, yield grade.

Results on one molecule are retold here after US20170165339A1 (IMMATICS BIOTECHNOLOGIES, published 2017).

B1: SLTEVSLPL (SEQ ID NO: 45) (peptide)
peptide: SLTEVSLPL
For B1, the peptide exchange yield lay in the range of 50 to 75%.
